Biological target: human SNAP-tagged GLP-1R (glucagon-like peptide-1 receptor) on HEK293-SNAP-GLP-1R cells (human) (UniProt P43220)
Test: FRET or BRET

Chain of UniProt P43220 (P43220 24-463): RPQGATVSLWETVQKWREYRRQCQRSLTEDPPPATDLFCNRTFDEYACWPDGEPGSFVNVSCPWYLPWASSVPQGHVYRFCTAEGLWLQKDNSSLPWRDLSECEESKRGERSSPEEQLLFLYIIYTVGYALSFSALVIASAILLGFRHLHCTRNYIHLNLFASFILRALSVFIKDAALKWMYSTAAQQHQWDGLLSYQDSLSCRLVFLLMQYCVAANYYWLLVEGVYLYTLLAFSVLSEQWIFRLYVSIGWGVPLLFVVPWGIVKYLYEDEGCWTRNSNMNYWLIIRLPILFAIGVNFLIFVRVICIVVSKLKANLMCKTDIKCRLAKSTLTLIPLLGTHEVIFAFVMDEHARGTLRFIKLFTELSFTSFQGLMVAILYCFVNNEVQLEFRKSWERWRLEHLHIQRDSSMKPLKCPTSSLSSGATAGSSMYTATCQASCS

Substance	log Kd
lixisenatide (peptide)	-9
exendin-4 (from UniProt P26349 48-87) (peptide)	-9.2

Reference: article doi:10.1101/803833
